The target in test [1] is T1, ビメンチン(vimentin) (human (endogenous protein of the human …, UniProt P08670 2-466)).
T1 construct: Endogenous intracellular protein
Nature of the test: streptavidin affinity precipitation from HT1080 lysate, stringent wash, western blot with anti-vimentin antibody. For orientation: Immunoblotting shows a protein as a band on a membrane.

In test [2] the target is T2, hnRNP-K (heterogeneous nuclear ribonucleoprotein K) (human (endogenous protein of the human …, UniProt P61978 1-463, limits assumed)).
T2 construct: Endogenous intracellular protein
Nature of the test: streptavidin affinity precipitation from HT1080 lysate, stringent wash, western blot with anti-hnRNP-K antibody.

T1 sequence (P08670 2-466 limits assumed): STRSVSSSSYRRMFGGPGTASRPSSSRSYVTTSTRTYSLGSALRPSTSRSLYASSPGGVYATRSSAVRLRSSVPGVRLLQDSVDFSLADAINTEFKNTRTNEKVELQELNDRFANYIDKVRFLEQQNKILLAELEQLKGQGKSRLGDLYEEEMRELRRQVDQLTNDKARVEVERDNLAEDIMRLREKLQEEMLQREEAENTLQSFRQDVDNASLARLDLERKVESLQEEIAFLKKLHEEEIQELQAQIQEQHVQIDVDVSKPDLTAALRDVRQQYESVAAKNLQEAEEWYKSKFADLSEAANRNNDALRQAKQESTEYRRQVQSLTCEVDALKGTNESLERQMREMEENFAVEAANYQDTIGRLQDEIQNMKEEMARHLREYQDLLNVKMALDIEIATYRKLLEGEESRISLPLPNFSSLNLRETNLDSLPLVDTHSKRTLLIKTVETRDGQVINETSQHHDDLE

B1: VHH-Sfi-SBT (VHH, not shown: large carriers)
VHH: DVQLQASGGGSVQAGGSLRLSCAASGYTIGPYCMGWFRQAPGKEREGVAAINMGGGITYYADSVKGRFTISQDNAKNTVYLLMNSLEPEDTAIYYCAADSAIYASYYECGHGLSTGGYGYGPWGQGTQVTVSS
B1: the binding result in test [1] and in test [2] was “no binding” throughout.
